{"source": "paper PMC5487681", "about": "“Identification of Antifungal H^+-ATPase Inhibitors with Effect on Plasma Membrane Potential” (Antimicrobial Agents and Chemotherapy, 2017)", "origin": "cited, not measured here", "molecules": {"B1": {"name": "lactoferrin: immunoprotein that inhibits Pma1 (protein, UniProt P02788 20-710, looked up)", "Lactotransferrin": "GRRRSVQWCAVSQPEATKCFQWQRNMRKVRGPPVSCIKRDSPIQCIQAIAENRADAVTLDGGFIYEAGLAPYKLRPVAAEVYGTERQPRTHYYAVAVVKKGGSFQLNELQGLKSCHTGLRRTAGWNVPIGTLRPFLNWTGPPEPIEAAVARFFSASCVPGADKGQFPNLCRLCAGTGENKCAFSSQEPYFSYSGAFKCLRDGAGDVAFIRESTVFEDLSDEAERDEYELLCPDNTRKPVDKFKDCHLARVPSHAVVARSVNGKEDAIWNLLRQAQEKFGKDKSPKFQLFGSPSGQKDLLFKDSAIGFSRVPPRIDSGLYLGSGYFTAIQNLRKSEEEVAARRARVVWCAVGEQELRKCNQWSGLSEGSVTCSSASTTEDCIALVLKGEADAMSLDGGYVYTAGKCGLVPVLAENYKSQQSSDPDPNCVDRPVEGYLAVAVVRRSDTSLTWNSVKGKKSCHTAVDRTAGWNIPMGLLFNQTGSCKFDEYFSQSCAPGSDPRSNLCALCIGDEQGENKCVPNSNERYYGYTGAFRCLAENAGDVAFVKDVTVLQNTDGNNNEAWAKDLKLADFALLCLDGKRKPVTEARSCHLAMAPNHAVVSRMDKVERLKQVLLHQQAKFGRNGSDCPDKFCLFQSETKNLLFNDNTECLARLHGKTTYEKYLGPQYVAGITNLKKCSTSPLLEACEFLRK"}}, "system": "C. albicans cells", "parameters": "method as in PMID 27139463", "data": [{"molecule": "B1", "values": [{"measurement": "Increase in iATP levels, C. albicans", "value": "> 600", "unit": "%"}]}]}
